# In US20040087777A1 (NEURALAB, published 2004):
# T1: … analog, Residue 8 = C
# T1 peptide: DAEFRHDCGY
# T2: … analog, Residue 8 = H
# T2 peptide: DAEFRHDHGY
# T3: … analog, Residue 8 = K
# T3 peptide: DAEFRHDKGY
# T4: … analog, Residue 8 = N
# T4 peptide: DAEFRHDNGY
# T5: … analog, Residue 8 = P
# T5 peptide: DAEFRHDPGY
# T6: … analog, Residue 8 = R
# T6 peptide: DAEFRHDRGY
# T7: … analog, Residue 1 = A
# T7 peptide: AAEFRHDSGY
# T8: … analog, Residue 1 = C
# T8 peptide: CAEFRHDSGY
# T9: … analog, Residue 1 = E
# T9 peptide: EAEFRHDSGY
# T10: … analog, Residue 1 = F
# T10 peptide: FAEFRHDSGY
# T11: … analog, Residue 1 = G
# T11 peptide: GAEFRHDSGY
# T12: … analog, Residue 1 = H
# T12 peptide: HAEFRHDSGY
# T13: … analog, Residue 1 = I
# T13 peptide: IAEFRHDSGY
# T14: … analog, Residue 1 = K
# T14 peptide: KAEFRHDSGY
# T15: … analog, Residue 1 = L
# T15 peptide: LAEFRHDSGY
# T16: … analog, Residue 1 = M
# T16 peptide: MAEFRHDSGY
# T17: … analog, Residue 1 = N
# T17 peptide: NAEFRHDSGY
# T18: … analog, Residue 1 = P
# T18 peptide: PAEFRHDSGY
# T19: … analog, Residue 1 = R
# T19 peptide: RAEFRHDSGY
# T20: … analog, Residue 1 = S
# T20 peptide: SAEFRHDSGY
# T21: … analog, Residue 1 = W
# T21 peptide: WAEFRHDSGY
# T22: … analog, Residue 1 = Y
# T22 peptide: YAEFRHDSGY
# T23: … analog, Residue 2 = C
# T23 peptide: DCEFRHDSGY
# T24: … analog, Residue 2 = D
# T24 peptide: DDEFRHDSGY
# T25: … analog, Residue 2 = F
# T25 peptide: DFEFRHDSGY
# T26: … analog, Residue 2 = G
# T26 peptide: DGEFRHDSGY
# T27: … analog, Residue 2 = H
# T27 peptide: DHEFRHDSGY
# T28: … analog, Residue 2 = I
# T28 peptide: DIEFRHDSGY
# T29: … analog, Residue 2 = K
# T29 peptide: DKEFRHDSGY
# T30: … analog, Residue 2 = N
# T30 peptide: DNEFRHDSGY
# T31: … analog, Residue 2 = Q
# T31 peptide: DQEFRHDSGY
# T32: … analog, Residue 2 = R
# T32 peptide: DREFRHDSGY
# T33: … analog, Residue 2 = T
# T33 peptide: DTEFRHDSGY
# T34: … analog, Residue 3 = C
# T34 peptide: DACFRHDSGY
# T35: … analog, Residue 3 = D
# T35 peptide: DADFRHDSGY
# T36: … analog, Residue 3 = H
# T36 peptide: DAHFRHDSGY
# T37: … analog, Residue 3 = I
# T37 peptide: DAIFRHDSGY
# T38: … analog, Residue 3 = K
# T38 peptide: DAKFRHDSGY
# T39: … analog, Residue 3 = L
# T39 peptide: DALFRHDSGY
# T40: … analog, Residue 3 = M
# T40 peptide: DAMFRHDSGY
# T41: … analog, Residue 3 = N
# T41 peptide: DANFRHDSGY
# T42: … analog, Residue 3 = P
# T42 peptide: DAPFRHDSGY
# T43: … analog, Residue 3 = Q
# T43 peptide: DAQFRHDSGY
# T44: … analog, Residue 3 = W
# T44 peptide: DAWFRHDSGY
# T45: … analog, Residue 3 = Y
# T45 peptide: DAYFRHDSGY
# B1: humanized 3D6 version 2 (antibody, V domains shown)
# VH: EVQLLESGGGLVQPGGSLRLSCAASGFTFSNYGMSWVRQAPGKGLEWVASIRSGGGRTYYSDNVKGRFTISRDNSKNTLYLQMNSLRAEDTAVYYCVRYDHYSGSSDYWGQGTLVTVSS
# VL: DVVMTQSPLSLPVTPGEPASISCKSSQSLLDSDGKTYLNWLLQKPGQSPQRLIYLVSKLDSGVPDRFSGSGSGTDFTLKISRVEAEDVGVYYCWQGTHFPRTFGQGTKVEIK
# notes: also called humanized 3D6v2; h3D6v2
# Tests used:
# … analog, Residue 8 = C = molecular target: T1, … analog, Residue 8 = C; assay: rNET
# Experimental: (§1) The rNET epitope map assay provides information about the contribution of individual residues within the epitope to the overall binding activity of the antibody. rNET analysis uses synthesized systematic single substituted peptide analogs. Binding of an antibody being tested is determined against native peptide (native antigen) and against 19 alternative “single substituted” peptides, each peptide being substituted at a first position with one of 19 non-native amino acids for that position. A profile is generated reflecting the effect of substitution at that position with the various non-native residues. Profiles are likewise generated at successive positions along the antigenic peptide. The combined profile, or epitope map, (reflecting substitution at each position with all 19 non-native residues) can then be compared to a map similarly generated for a second antibody.
# (§2) Antibodies were tested for binding against the native Aβ peptide [sequence] […] Residues 1-8 were systematically substituted with each of the 19 non-native residues for that position.
# … analog, Residue 8 = H = molecular target: T2, … analog, Residue 8 = H; assay: rNET
# Experimental: as §1, §2
# … analog, Residue 8 = K = molecular target: T3, … analog, Residue 8 = K; assay: rNET
# Experimental: as §1, §2
# … analog, Residue 8 = N = molecular target: T4, … analog, Residue 8 = N; assay: rNET
# Experimental: as §1, §2
# … analog, Residue 8 = P = molecular target: T5, … analog, Residue 8 = P; assay: rNET
# Experimental: as §1, §2
# … analog, Residue 8 = R = molecular target: T6, … analog, Residue 8 = R; assay: rNET
# Experimental: as §1, §2
# … analog, Residue 1 = A = molecular target: T7, … analog, Residue 1 = A; assay: rNET
# Experimental: as §1, §2
# … analog, Residue 1 = C = molecular target: T8, … analog, Residue 1 = C; assay: rNET
# Experimental: as §1, §2
# … analog, Residue 1 = E = molecular target: T9, … analog, Residue 1 = E; assay: rNET
# Experimental: as §1, §2
# … analog, Residue 1 = F = molecular target: T10, … analog, Residue 1 = F; assay: rNET
# Experimental: as §1, §2
# … analog, Residue 1 = G = molecular target: T11, … analog, Residue 1 = G; assay: rNET
# Experimental: as §1, §2
# … analog, Residue 1 = H = molecular target: T12, … analog, Residue 1 = H; assay: rNET
# Experimental: as §1, §2
# … analog, Residue 1 = I = molecular target: T13, … analog, Residue 1 = I; assay: rNET
# Experimental: as §1, §2
# … analog, Residue 1 = K = molecular target: T14, … analog, Residue 1 = K; assay: rNET
# Experimental: as §1, §2
# … analog, Residue 1 = L = molecular target: T15, … analog, Residue 1 = L; assay: rNET
# Experimental: as §1, §2
# … analog, Residue 1 = M = molecular target: T16, … analog, Residue 1 = M; assay: rNET
# Experimental: as §1, §2
# … analog, Residue 1 = N = molecular target: T17, … analog, Residue 1 = N; assay: rNET
# Experimental: as §1, §2
# … analog, Residue 1 = P = molecular target: T18, … analog, Residue 1 = P; assay: rNET
# Experimental: as §1, §2
# … analog, Residue 1 = R = molecular target: T19, … analog, Residue 1 = R; assay: rNET
# Experimental: as §1, §2
# … analog, Residue 1 = S = molecular target: T20, … analog, Residue 1 = S; assay: rNET
# Experimental: as §1, §2
# … analog, Residue 1 = W = molecular target: T21, … analog, Residue 1 = W; assay: rNET
# Experimental: as §1, §2
# … analog, Residue 1 = Y = molecular target: T22, … analog, Residue 1 = Y; assay: rNET
# Experimental: as §1, §2
# … analog, Residue 2 = C = molecular target: T23, … analog, Residue 2 = C; assay: rNET
# Experimental: as §1, §2
# … analog, Residue 2 = D = molecular target: T24, … analog, Residue 2 = D; assay: rNET
# Experimental: as §1, §2
# … analog, Residue 2 = F = molecular target: T25, … analog, Residue 2 = F; assay: rNET
# Experimental: as §1, §2
# … analog, Residue 2 = G = molecular target: T26, … analog, Residue 2 = G; assay: rNET
# Experimental: as §1, §2
# … analog, Residue 2 = H = molecular target: T27, … analog, Residue 2 = H; assay: rNET
# Experimental: as §1, §2
# … analog, Residue 2 = I = molecular target: T28, … analog, Residue 2 = I; assay: rNET
# Experimental: as §1, §2
# … analog, Residue 2 = K = molecular target: T29, … analog, Residue 2 = K; assay: rNET
# Experimental: as §1, §2
# … analog, Residue 2 = N = molecular target: T30, … analog, Residue 2 = N; assay: rNET
# Experimental: as §1, §2
# … analog, Residue 2 = Q = molecular target: T31, … analog, Residue 2 = Q; assay: rNET
# Experimental: as §1, §2
# … analog, Residue 2 = R = molecular target: T32, … analog, Residue 2 = R; assay: rNET
# Experimental: as §1, §2
# … analog, Residue 2 = T = molecular target: T33, … analog, Residue 2 = T; assay: rNET
# Experimental: as §1, §2
# … analog, Residue 3 = C = molecular target: T34, … analog, Residue 3 = C; assay: rNET
# Experimental: as §1, §2
# … analog, Residue 3 = D = molecular target: T35, … analog, Residue 3 = D; assay: rNET
# Experimental: as §1, §2
# … analog, Residue 3 = H = molecular target: T36, … analog, Residue 3 = H; assay: rNET
# Experimental: as §1, §2
# … analog, Residue 3 = I = molecular target: T37, … analog, Residue 3 = I; assay: rNET
# Experimental: as §1, §2
# … analog, Residue 3 = K = molecular target: T38, … analog, Residue 3 = K; assay: rNET
# Experimental: as §1, §2
# … analog, Residue 3 = L = molecular target: T39, … analog, Residue 3 = L; assay: rNET
# Experimental: as §1, §2
# … analog, Residue 3 = M = molecular target: T40, … analog, Residue 3 = M; assay: rNET
# Experimental: as §1, §2
# … analog, Residue 3 = N = molecular target: T41, … analog, Residue 3 = N; assay: rNET
# Experimental: as §1, §2
# … analog, Residue 3 = P = molecular target: T42, … analog, Residue 3 = P; assay: rNET
# Experimental: as §1, §2
# … analog, Residue 3 = Q = molecular target: T43, … analog, Residue 3 = Q; assay: rNET
# Experimental: as §1, §2
# … analog, Residue 3 = W = molecular target: T44, … analog, Residue 3 = W; assay: rNET
# Experimental: as §1, §2
# … analog, Residue 3 = Y = molecular target: T45, … analog, Residue 3 = Y; assay: rNET
# Experimental: as §1, §2
# [1] = molecular target: T46, beta amyloid peptide (Aβ) (human, UniProt P05067 672-713, limits assumed); assay: BIAcore
# T46 construct: also called A-beta; β-amyloid peptide
# 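Throughout, for OD: antibody binding measured against single-substituted peptide analogs, each epitope position replaced by every one of 19 non-native amino acids, compared with binding to the native Aβ peptide.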
binder,measurement,setting,value
B1,OD,"… analog, Residue 8 = C",0.7 OD
same,OD,"… analog, Residue 8 = H",0.683 OD
same,OD,"… analog, Residue 8 = K",0.698 OD
same,OD,"… analog, Residue 8 = N",0.7 OD
same,OD,"… analog, Residue 8 = P",0.694 OD
same,OD,"… analog, Residue 8 = R",0.699 OD
same,OD,"… analog, Residue 1 = A",0.643 OD
same,OD,"… analog, Residue 1 = C",0.628 OD
same,OD,"… analog, Residue 1 = E",0.7 OD
same,OD,"… analog, Residue 1 = F",0.062 OD
same,OD,"… analog, Residue 1 = G",0.738 OD
same,OD,"… analog, Residue 1 = H",0.117 OD
same,OD,"… analog, Residue 1 = I",0.118 OD
same,OD,"… analog, Residue 1 = K",0.057 OD
same,OD,"… analog, Residue 1 = L",0.148 OD
same,OD,"… analog, Residue 1 = M",0.072 OD
same,OD,"… analog, Residue 1 = N",0.757 OD
same,OD,"… analog, Residue 1 = P",0.144 OD
same,OD,"… analog, Residue 1 = R",0.155 OD
same,OD,"… analog, Residue 1 = S",0.762 OD
same,OD,"… analog, Residue 1 = W",0.07 OD
same,OD,"… analog, Residue 1 = Y",0.498 OD
same,OD,"… analog, Residue 2 = C",0.694 OD
same,OD,"… analog, Residue 2 = D",0.222 OD
same,OD,"… analog, Residue 2 = F",0.717 OD
same,OD,"… analog, Residue 2 = G",0.72 OD
same,OD,"… analog, Residue 2 = H",0.741 OD
same,OD,"… analog, Residue 2 = I",0.722 OD
same,OD,"… analog, Residue 2 = K",0.722 OD
same,OD,"… analog, Residue 2 = N",0.735 OD
same,OD,"… analog, Residue 2 = Q",0.756 OD
same,OD,"… analog, Residue 2 = R",0.719 OD
same,OD,"… analog, Residue 2 = T",0.712 OD
same,OD,"… analog, Residue 3 = C",0.41 OD
same,OD,"… analog, Residue 3 = D",0.027 OD
same,OD,"… analog, Residue 3 = H",0.02 OD
same,OD,"… analog, Residue 3 = I",0.024 OD
same,OD,"… analog, Residue 3 = K",0.09 OD
same,OD,"… analog, Residue 3 = L",0.026 OD
same,OD,"… analog, Residue 3 = M",0.027 OD
same,OD,"… analog, Residue 3 = N",0.032 OD
same,OD,"… analog, Residue 3 = P",0.02 OD
same,OD,"… analog, Residue 3 = Q",0.406 OD
same,OD,"… analog, Residue 3 = W",0.304 OD
same,OD,"… analog, Residue 3 = Y",0.02 OD
same,Kd,[1],2.24 nM
